According to FireProtDB (doi:10.1006/jmbi.1995.0323):

B1: Subtilisin inhibitor, P01006 (parent)
chain: MRNTGAGPSPSVSRPPPSAAPLSGAALAAPGDAPSALYAPSALVLTVGKGVSATTAAPERAVTLTCAPGPSGTHPAAGSACADLAAVGGDLNALTRGEDVMCPMVYDPVLLTVDGVWQGKRVSYERVFSNECEMNAHGSSVFAF

Variants of: B1
Details: Streptomyces albogriseolus, Thermal, DSC, reversible: yes, structure 3SSI, whole UniProt chain shown
[1] = pH 3.2, 53.36 °C, glycine 25 mM
[2] = pH 7, 82.21 °C, Sodium phosphate 25 mM

Variant: M134L
- ddG of mutation (higher = less stable) [1]: -0.77 kcal/mol
- unfolding free energy [1]: 6.32 kcal/mol
- ddG of mutation (higher = less stable) [2]: -0.15 kcal/mol
- unfolding free energy [2]: 6.18 kcal/mol
- Tm (pH 7, Sodium phosphate 25 mM): 82.5 °C
- change of melting temperature, mutant - wild type (higher = more stable) (pH 7, Sodium phosphate 25 mM): 0.3 °C
- unfolding enthalpy (calorimetric) (pH 7, Sodium phosphate 25 mM): 182 kcal/mol
- ddG of mutation (higher = less stable) (pH 9.5, 80.7 °C, glycine 25 mM): 0.29 kcal/mol
- unfolding free energy (pH 9.5, 80.7 °C, glycine 25 mM): 5.75 kcal/mol
- Tm (pH 9.5, glycine 25 mM): 80.2 °C
- change of melting temperature, mutant - wild type (higher = more stable) (pH 9.5, glycine 25 mM): -0.48 °C
- unfolding enthalpy (calorimetric) (pH 9.5, glycine 25 mM): 178 kcal/mol

Variant: M134I
- Tm (pH 3.2, glycine 25 mM): 46.1 °C
- change of melting temperature, mutant - wild type (higher = more stable) (pH 3.2, glycine 25 mM): -7.3 °C
- unfolding enthalpy (calorimetric) (pH 3.2, glycine 25 mM): 98.8 kcal/mol
- ddG of mutation (higher = less stable) [2]: 1.89 kcal/mol
- unfolding free energy [2]: 4.14 kcal/mol
- Tm (pH 7, Sodium phosphate 25 mM): 78.3 °C
- change of melting temperature, mutant - wild type (higher = more stable) (pH 7, Sodium phosphate 25 mM): -3.9 °C
- unfolding enthalpy (calorimetric) (pH 7, Sodium phosphate 25 mM): 179 kcal/mol
- ddG of mutation (higher = less stable) (pH 9.5, 80.7 °C, glycine 25 mM): 2.29 kcal/mol
- unfolding free energy (pH 9.5, 80.7 °C, glycine 25 mM): 3.75 kcal/mol
- Tm (pH 9.5, glycine 25 mM): 75.9 °C
- change of melting temperature, mutant - wild type (higher = more stable) (pH 9.5, glycine 25 mM): -4.8 °C
- unfolding enthalpy (calorimetric) (pH 9.5, glycine 25 mM): 175 kcal/mol

Variant: M134A
- ddG of mutation (higher = less stable) [1]: 1.35 kcal/mol
- unfolding free energy [1]: 4.2 kcal/mol
- Tm (pH 3.2, glycine 25 mM): 49.3 °C
- change of melting temperature, mutant - wild type (higher = more stable) (pH 3.2, glycine 25 mM): -4.1 °C
- unfolding enthalpy (calorimetric) (pH 3.2, glycine 25 mM): 113 kcal/mol
- ddG of mutation (higher = less stable) [2]: 2.32 kcal/mol
- unfolding free energy [2]: 3.71 kcal/mol
- Tm (pH 9.5, glycine 25 mM): 75.5 °C
- change of melting temperature, mutant - wild type (higher = more stable) (pH 9.5, glycine 25 mM): -5.18 °C
- unfolding enthalpy (calorimetric) (pH 9.5, glycine 25 mM): 193 kcal/mol

Variant: M134G
- Tm (pH 7, Sodium phosphate 25 mM): 68.6 °C
- change of melting temperature, mutant - wild type (higher = more stable) (pH 7, Sodium phosphate 25 mM): -13.6 °C
- unfolding enthalpy (calorimetric) (pH 7, Sodium phosphate 25 mM): 191 kcal/mol
- Tm (pH 9.5, glycine 25 mM): 66.3 °C
- change of melting temperature, mutant - wild type (higher = more stable) (pH 9.5, glycine 25 mM): -14.4 °C
- unfolding enthalpy (calorimetric) (pH 9.5, glycine 25 mM): 187 kcal/mol

Variant: M134V
- ddG of mutation (higher = less stable) [1]: 1.35 kcal/mol
- unfolding free energy [1]: 4.2 kcal/mol
- Tm (pH 3.2, glycine 25 mM): 49.1 °C
- change of melting temperature, mutant - wild type (higher = more stable) (pH 3.2, glycine 25 mM): -4.3 °C
- unfolding enthalpy (calorimetric) (pH 3.2, glycine 25 mM): 107 kcal/mol
- ddG of mutation (higher = less stable) [2]: 1.84 kcal/mol
- unfolding free energy [2]: 4.19 kcal/mol
- Tm (pH 7, Sodium phosphate 25 mM): 78.6 °C
- change of melting temperature, mutant - wild type (higher = more stable) (pH 7, Sodium phosphate 25 mM): -3.6 °C
- unfolding enthalpy (calorimetric) (pH 7, Sodium phosphate 25 mM): 179 kcal/mol
- ddG of mutation (higher = less stable) (pH 9.5, 80.7 °C, glycine 25 mM): 2.22 kcal/mol
- unfolding free energy (pH 9.5, 80.7 °C, glycine 25 mM): 3.82 kcal/mol
- Tm (pH 9.5, glycine 25 mM): 76.4 °C
- change of melting temperature, mutant - wild type (higher = more stable) (pH 9.5, glycine 25 mM): -4.33 °C
- unfolding enthalpy (calorimetric) (pH 9.5, glycine 25 mM): 184 kcal/mol
